The values below come from patent US20220259317A1.

This experiment deals with FLT3 CAR (Short Form; NC7 based FLT3 CAR), SEQ ID NO: 1/29. The experiment can be described thus: flow cytometry of FLT3 CAR transduced T cells stained with biotinylated protein L and streptavidin PE. (In general: In flow cytometry, cells or beads pass a laser one at a time.)
Chain of FLT3 CAR (Short Form; NC7 based FLT3 CAR), SEQ ID NO: 1/29 (chain, as listed by the source): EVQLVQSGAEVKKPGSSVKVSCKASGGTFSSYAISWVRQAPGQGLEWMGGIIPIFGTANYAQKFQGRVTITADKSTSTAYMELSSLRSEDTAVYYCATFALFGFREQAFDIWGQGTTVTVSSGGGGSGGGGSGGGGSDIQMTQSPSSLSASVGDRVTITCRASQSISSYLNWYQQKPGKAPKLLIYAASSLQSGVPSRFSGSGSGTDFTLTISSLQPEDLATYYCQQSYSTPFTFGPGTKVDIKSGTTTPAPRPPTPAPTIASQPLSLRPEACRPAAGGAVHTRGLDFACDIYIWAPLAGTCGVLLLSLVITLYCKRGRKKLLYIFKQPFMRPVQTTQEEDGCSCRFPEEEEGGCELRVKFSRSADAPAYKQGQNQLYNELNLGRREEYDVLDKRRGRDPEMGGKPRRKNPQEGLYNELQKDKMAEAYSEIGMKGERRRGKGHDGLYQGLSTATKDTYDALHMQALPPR

On to biotinylated protein L (Genscript), for which the % positive cells was found to be 77.1%.
